Measured values as given in patent publication US20170088593A1 (UNIVERSITY OF FLORIDA RESEARCH FOUNDATION, published 2017).

Target: Keap-1 (UniProt Q14145 1-624)
Test: cell-based or functional assay

Keap-1, sequence (Q14145 whole entry): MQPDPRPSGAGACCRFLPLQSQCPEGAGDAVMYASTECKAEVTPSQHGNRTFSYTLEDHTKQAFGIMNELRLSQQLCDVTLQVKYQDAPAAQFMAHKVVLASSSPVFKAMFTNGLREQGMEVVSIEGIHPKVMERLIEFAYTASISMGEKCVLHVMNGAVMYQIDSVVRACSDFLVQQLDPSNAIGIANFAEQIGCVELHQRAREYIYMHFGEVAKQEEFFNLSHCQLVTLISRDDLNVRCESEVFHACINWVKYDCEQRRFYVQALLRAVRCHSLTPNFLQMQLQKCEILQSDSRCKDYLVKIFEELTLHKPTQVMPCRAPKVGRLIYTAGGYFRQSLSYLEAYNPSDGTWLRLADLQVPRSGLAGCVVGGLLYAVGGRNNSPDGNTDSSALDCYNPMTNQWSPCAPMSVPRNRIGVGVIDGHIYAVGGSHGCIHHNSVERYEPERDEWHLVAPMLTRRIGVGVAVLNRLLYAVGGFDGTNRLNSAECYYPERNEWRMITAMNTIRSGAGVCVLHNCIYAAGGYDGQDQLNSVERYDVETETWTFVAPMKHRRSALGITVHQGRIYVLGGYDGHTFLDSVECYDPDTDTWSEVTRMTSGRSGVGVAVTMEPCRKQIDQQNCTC

B1: TatNrf2-14mer peptide (HIV-1 Tat cell penetrating peptide fused to the Nrf2 14mer) (peptide)
peptide: RKKRRQRRRLQLDEETGEFLPIQ
GSTM1 mRNA (antioxidant enzyme and marker of the ARE response), RT-PCR in human retinal pigment epithelial cells treated with the TatNrf2 plasmid: 18 fold
